What was measured:
Experiment in all cases: IEDB peptide-MHC binding, purified MHC/competitive/radioactivity; ≥ and ≤ were set here for values at or beyond the usual limits of such assays
HLA-A*02:01 = molecular target: HLA-A*02:01
HLA-A*02:02 = molecular target: HLA-A*02:02
HLA-A*02:03 = molecular target: HLA-A*02:03
HLA-A*68:02 = molecular target: HLA-A*68:02
HLA-A*02:06 = molecular target: HLA-A*02:06
[1] = source organism: Hepacivirus hominis
[2] = source organism: Vaccinia virus WR
[3] = source organism: Influenza A virus
[4] = source organism: Mammarenavirus whitewaterense
[5] = source organism: Mammarenavirus choriomeningitidis

Sequence | IC50 (HLA-A*02:01; [2]) [nM] | IC50 (HLA-A*02:02; [2]) [nM] | IC50 (HLA-A*02:03; [2]) [nM] | IC50 (HLA-A*68:02; [2]) [nM] | IC50 (HLA-A*02:06; [2]) [nM] | other results
VLAGGVLAAV | – | – | – | – | – | IC50 (HLA-A*02:01; [1]): 7.8 nM; IC50 (HLA-A*02:02; [1]): 4.3 nM; IC50 (HLA-A*02:03; [1]): 6.7 nM; IC50 (HLA-A*68:02; [1]): 59 nM; IC50 (HLA-A*02:06; [1]): 33 nM
VLMTHFFSVL | – | – | – | – | – | IC50 (HLA-A*02:01; [1]): 114 nM; IC50 (HLA-A*02:02; [1]): 62 nM; IC50 (HLA-A*02:03; [1]): 21 nM; IC50 (HLA-A*68:02; [1]): 4690 nM; IC50 (HLA-A*02:06; [1]): 112 nM
GALDVSASV | – | – | – | – | – | IC50 (HLA-A*02:01; source organism: SARS-CoV1): 3.4 nM; IC50 (HLA-A*02:02; source organism: SARS-CoV1): 0.72 nM; IC50 (HLA-A*02:03; source organism: SARS-CoV1): 2.3 nM; IC50 (HLA-A*68:02; source organism: SARS-CoV1): 2.9 nM; IC50 (HLA-A*02:06; source organism: SARS-CoV1): 2.3 nM
ILMTHFFSIL | – | – | – | – | – | IC50 (HLA-A*02:01; [1]): 44 nM; IC50 (HLA-A*02:02; [1]): 35 nM; IC50 (HLA-A*02:03; [1]): 69 nM; IC50 (HLA-A*68:02; [1]): 3970 nM; IC50 (HLA-A*02:06; [1]): 101 nM
AISAVYFKA | 41 | 3.7 | 525 | 77 | 149 | –
YIALCKVTV | 15 | 12 | 24 | 48 | 19 | –
HLFTSMFSL | – | – | – | – | – | IC50 (HLA-A*02:01; [1]): 49 nM; IC50 (HLA-A*02:02; [1]): 5.2 nM; IC50 (HLA-A*02:03; [1]): 105 nM; IC50 (HLA-A*68:02; [1]): 181 nM; IC50 (HLA-A*02:06; [1]): 627 nM
IIAVFDSKL | 1760 | 44 | 107 | 2320 | 99 | –
EAAAATCALV | 318 | 1810 | 248 | 0.21 | 60 | –
TVPTNDHIPV | 1670 | 1680 | 1890 | 57 | 515 | –
NIISYIILFI | 156 | 123 | 133 | 25 | 72 | –
MQIAILVTTV | – | – | – | – | – | IC50 (HLA-A*02:01; [3]): 79 nM; IC50 (HLA-A*02:02; [3]): 40 nM; IC50 (HLA-A*02:03; [3]): 6 nM; IC50 (HLA-A*68:02; [3]): 129 nM; IC50 (HLA-A*02:06; [3]): 61 nM
RIVVALSSLV | 51 | 48 | 7.2 | 8.5 | 9.6 | –
NLFEKFFPSS | – | – | – | – | – | IC50 (HLA-A*02:01; [3]): 271 nM; IC50 (HLA-A*02:02; [3]): 415 nM; IC50 (HLA-A*02:03; [3]): 362 nM; IC50 (HLA-A*68:02; [3]): 360 nM; IC50 (HLA-A*02:06; [3]): 28 nM
LLLWISVKV | – | – | – | – | – | IC50 (HLA-A*02:01; source organism: SARS-CoV1): 13 nM; IC50 (HLA-A*02:02; source organism: SARS-CoV1): 94 nM; IC50 (HLA-A*02:03; source organism: SARS-CoV1): 198 nM; IC50 (HLA-A*68:02; source organism: SARS-CoV1): 2740 nM; IC50 (HLA-A*02:06; source organism: SARS-CoV1): 10 nM
NITRLEVIGL | 424 | 907 | 95 | 301 | 197 | –
YCNYTKFWYV | – | – | – | – | – | IC50 (HLA-A*02:01; [4]): 75 nM; IC50 (HLA-A*02:02; [4]): 322 nM; IC50 (HLA-A*02:03; [4]): 102 nM; IC50 (HLA-A*68:02; [4]): 490 nM; IC50 (HLA-A*02:06; [4]): 6.5 nM

Sequence | IC50 (HLA-A*02:01; [2]) [nM] | IC50 (HLA-A*02:02; [2]) [nM] | IC50 (HLA-A*02:03; [2]) [nM] | IC50 (HLA-A*68:02; [2]) [nM] | IC50 (HLA-A*02:06; [2]) [nM] | other results
IVYGRSNAIL | 724 | 92 | 33 | 642 | 424 | –
YLMCLSPLMA | – | – | – | – | – | IC50 (HLA-A*02:01; source organism: SARS-CoV1): 0.65 nM; IC50 (HLA-A*02:02; source organism: SARS-CoV1): 0.24 nM; IC50 (HLA-A*02:03; source organism: SARS-CoV1): 0.13 nM; IC50 (HLA-A*68:02; source organism: SARS-CoV1): 166 nM; IC50 (HLA-A*02:06; source organism: SARS-CoV1): 1.3 nM
FAISYCRAFI | 1970 | 105 | 38 | 1.7 | 35 | –
YLRLYIILA | 190 | 8.3 | 52 | 2720 | 4180 | –
LISFFGLFDI | 175 | 76 | 108 | 82 | 171 | –
HILHAYCGI | 1480 | 123 | 66 | 143 | 359 | –
IVDTVSALV | – | – | – | – | – | IC50 (HLA-A*02:01; source organism: SARS-CoV1): 58 nM; IC50 (HLA-A*02:02; source organism: SARS-CoV1): 17 nM; IC50 (HLA-A*02:03; source organism: SARS-CoV1): 528 nM; IC50 (HLA-A*68:02; source organism: SARS-CoV1): 301 nM; IC50 (HLA-A*02:06; source organism: SARS-CoV1): 43 nM
YMLFTKFFYL | – | – | – | – | – | IC50 (HLA-A*02:01; source organism: SARS-CoV1): 5.1 nM; IC50 (HLA-A*02:02; source organism: SARS-CoV1): 48 nM; IC50 (HLA-A*02:03; source organism: SARS-CoV1): 46 nM; IC50 (HLA-A*68:02; source organism: SARS-CoV1): 9.9 nM; IC50 (HLA-A*02:06; source organism: SARS-CoV1): 20 nM
ILFILFFAYV | 139 | 132 | 366 | 320 | 1210 | –
RIASILSLET | 985 | 583 | 449 | 442 | 751 | –
ALLFLMSFTI | – | – | – | – | – | IC50 (HLA-A*02:01; source organism: SARS-CoV1): 1.6 nM; IC50 (HLA-A*02:02; source organism: SARS-CoV1): 0.37 nM; IC50 (HLA-A*02:03; source organism: SARS-CoV1): 199 nM; IC50 (HLA-A*68:02; source organism: SARS-CoV1): 1770 nM; IC50 (HLA-A*02:06; source organism: SARS-CoV1): 14 nM
QMLSVVGFLV | – | – | – | – | – | IC50 (HLA-A*02:01; source organism: SARS-CoV1): 7.5 nM; IC50 (HLA-A*02:02; source organism: SARS-CoV1): 1.2 nM; IC50 (HLA-A*02:03; source organism: SARS-CoV1): 6 nM; IC50 (HLA-A*68:02; source organism: SARS-CoV1): 206 nM; IC50 (HLA-A*02:06; source organism: SARS-CoV1): 14 nM
SLVITYCLVT | 373 | 286 | 566 | 447 | 824 | –
LMIGNYFSGV | 0.27 | 0.13 | 0.093 | 160 | 0.13 | –
RNHLRDLMGV | – | – | – | – | – | IC50 (HLA-A*02:01; [5]): 113 nM; IC50 (HLA-A*02:02; [5]): 428 nM; IC50 (HLA-A*02:03; [5]): 733 nM; IC50 (HLA-A*68:02; [5]): 2820 nM; IC50 (HLA-A*02:06; [5]): 107 nM
MLLTFLTSL | – | – | – | – | – | IC50 (HLA-A*02:01; source organism: SARS-CoV1): 1.6 nM; IC50 (HLA-A*02:02; source organism: SARS-CoV1): 6.2 nM; IC50 (HLA-A*02:03; source organism: SARS-CoV1): 4.8 nM; IC50 (HLA-A*68:02; source organism: SARS-CoV1): 923 nM; IC50 (HLA-A*02:06; source organism: SARS-CoV1): 3.6 nM
MICCDSRIVV | 25 | 665 | 392 | 27 | 52 | –

From the Immune Epitope Database (IEDB)
